Measurements from PMC3121799, “Mechanism of Heparin Acceleration of Tissue Inhibitor of Metalloproteases-1 (TIMP-1) Degradation by the Human Neutrophil Elastase” (PLoS ONE, 2011).
Square brackets hold non-standard residues; d marks the D form. Ends that are not written are not given here. * marks the point of attachment. EDDnp = O=[N+]([O-])c1ccc(NCCN*)c([N+](=O)[O-])c1; 2Abz = Nc1ccccc1C(=O)O

Experiments:
His57 = His57 (UniProt position 70, VMSAAHCVANV); assay: kinetics; conditions: 37 °C, Constant ionic strength buffer system containing 140 mM NaCl, 25 mM glycine, 25 mM acetic acid, 25 mM Mes, 75 mM Tris, 0.05% (v/v) Triton X-100, pH adjusted with HCl or NaOH
Nterm16 = assay: kinetics; conditions: 37 °C, Constant ionic strength buffer system containing 140 mM NaCl, 25 mM glycine, 25 mM acetic acid, 25 mM Mes, 75 mM Tris, 0.05% (v/v) Triton X-100, pH adjusted with HCl or NaOH
[1] = molecular target: T1, Human neutrophil elastase (human, UniProt P08246 30-267); assay: stopped-flow fluorescence kinetics of substrate hydrolysis (pre-steady-state, fit to a three-step mechanism with DynaFit IV); both in solution; 3.8 µM FRET-peptide, 12.6 nM HNE (12.7 nM in the methods), 25°C, 10 mM Tris-HCl pH 7.4, 100 mM NaCl, with 50 µM heparin; conditions: both partners purified
[2] = molecular target: T1, Human neutrophil elastase; assay: stopped-flow fluorescence kinetics of substrate hydrolysis (pre-steady-state, fit to a three-step mechanism with DynaFit IV); both in solution; 3.8 µM FRET-peptide, 12.6 nM HNE, 25°C, 10 mM Tris-HCl pH 7.4, 100 mM NaCl, no heparin; conditions: both partners purified
[3] = Free enzyme, no heparin (control)
[4] = Heparin-bound enzyme (50 µM 14 kDa heparin)

T1 sequence (P08246 30-267): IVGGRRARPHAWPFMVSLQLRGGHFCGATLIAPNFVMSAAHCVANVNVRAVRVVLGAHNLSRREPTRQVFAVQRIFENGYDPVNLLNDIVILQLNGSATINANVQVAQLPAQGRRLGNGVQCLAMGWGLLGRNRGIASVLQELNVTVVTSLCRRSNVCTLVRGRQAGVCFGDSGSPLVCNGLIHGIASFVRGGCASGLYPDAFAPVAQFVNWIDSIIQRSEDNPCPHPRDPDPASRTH

Row | koff [1] | kon [1] | koff [2] | kon [2] | Molecule | pKa (His57; [3]) | pKa (His57; [4]) | pKa (Nterm16; [3]) | pKa (Nterm16; [4])
1 |  |  |  |  | Human neutrophil elastase (HNE; leukocyte elastase, EC 3.4.21.37) (Homo sapiens) | 6.71±0.05 | 7.04±0.07 | 8.93±0.05 | 9.60±0.07
2 | 0.081 s⁻¹ | 820000 M⁻¹ s⁻¹ | 0.25 s⁻¹ | 350000 M⁻¹ s⁻¹ | [2Abz]AMESVMGYFHRSQ-EDDnp (the peptide has Met where TIMP-1 has Cys70 (cleaved bond Val-Met); also called FRET-peptide substrate; FRET substrate; source: synthetic peptide (solid phase, Fmoc; HPLC purified)) [FRET-peptide Abz-AMESVMGYFHRSQ-EDDnp] |  |  |  | 
